Reference: paper PMC2946932 (PLoS ONE, 2010)

Biological target: T1, extracellular domain of human BMP receptor type IA (BMPR-IAEC), wild type (human, UniProt P36894)
T1 construct: numbers count on: the mature protein; In the crystal only Pro34-Val118 were traced; also called BMPR-IA WT; BMPR-IA ectodomain; source: expressed as thioredoxin-fusion protein as described [16], purified
Test: SPR; Biacore 2000, room temperature; biotinylated BMP-2 and Fabs immobilised on a streptavidin-coated CM5 chip; wildtype or mutant BMPR-IAEC as analyte at 1000, 500, 250, 125, 62.5 nM; HBS500 (10 mM HEPES, 500 mM NaCl pH 7.4, 3.4 mM EDTA, 0.005% surfactant P20), 10 µl/min; 1:1 Langmuir model; apparent KD from equilibrium binding and/or kon and koff
Details: both partners purified

T1 sequence (P36894 24-152): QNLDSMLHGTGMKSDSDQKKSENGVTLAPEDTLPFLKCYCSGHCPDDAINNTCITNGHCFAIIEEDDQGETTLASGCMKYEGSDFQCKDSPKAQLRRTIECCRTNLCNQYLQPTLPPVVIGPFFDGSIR

B1: Fab AbD1556 (Fab, V domains shown)
VH: QVQLVESGGGLVQPGGSLRLSCAASGFTFSNYTLNWVRQAPGKGLEWVSYTSSSGSLTGYADSVKGRFTISRDNSKNTLYLQMNSLRAEDTAVYYCARERWHVRGYFDHWGQGTLVTVSS
VL: DIELTQPPSVSVAPGQTARISCSGDSLGSKYVIWYQQKPGQAPVLVIYDDSNRPSGIPERFSGSNSGNTATLTISGTQAEDEADYYCSTFTMSGNGTVFGGGTKLTVL
notes: heavy chain of Fab AbD1556 (Gln1 to Phe224, then the Strep-Tag); light chain of Fab AbD1556 (Asp1 to Ala213); Human Fab of the HuCal library; Not biotinylated in the crystal; some residues of PDB 3NH7 are not modelled; source: obtained from AbD-Serotech (Martinsried), recombinant Fab selected from the HuCal phage library
- Kd: 0.02 µM
- koff: 0.0017 s⁻¹
- kon: 88000 M⁻¹ s⁻¹
